Reference: the supplement of paper PMC9170038

System: K4 kissing-loop RNA reporter
Experiment: apparent KD of K4 kissing-loop reporter; higher = weaker reporter binding
Conditions: Eterna round: R107
Experimental: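 RNA-MaP round R107: designed RNA switches with theophylline, tryptophan, arginine or FMN aptamers are transcribed on-chip within common flanks. They are titrated with a labelled K4 kissing-loop RNA reporter in RNA-MaP buffer (100 mM Tris pH 7.5, 80 mM KCl, 4 mM MgCl2), without ligand or with the indicated ligand. Median apparent KD per design.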

[1] = input ligand: theophylline 20 uM
[2] = input ligand: tryptophan 2.4 mM
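Note: bound reporter read as fluorescence of individual clusters on recovered sequencing chips by microscopy, with normalized cluster intensities fitted with a binding model.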

Sequence | apparent KD of K4 kissing-loop reporter (input ligand: FMN 200 uM) | apparent KD of K4 kissing-loop reporter (input ligand: arginine 13.2 mM) | apparent KD of K4 kissing-loop reporter (input ligand: none) | apparent KD of K4 kissing-loop reporter [1] | apparent KD of K4 kissing-loop reporter [2]
AGGCACGAGCAAGGAUAUCGAGUAGAGUGAUGUUCUGCCUGGGUUGGCUCGUAAGAGCCUUCUCAGCGAGAAGGUGCUCGUGCCU [#2 Same State - FMN A Attempt #20 (HarryS)] | 0.217 µM | 0.511 µM | 0.544 µM | 0.511 µM | 0.944 µM
AAGGCACGGCUUCGGCCGUGCCAAAUAGAUACCAGCAUAAUAAUAUGCCCUUGGCAGCUAAAUAGAAAUUCAGUGAUGUUGGAUA [SS Theo A Tesla 2.1] | 0.597 µM | 0.444 µM | 0.601 µM | 0.586 µM | 0.649 µM
AAAGAGUCCUGAGCCGAAGAAGAAGGCGGACGAGGACCGGUACGGCCGCCACUCGAAAGGAGUGCGGCUGAGUGAUGUUUGGCCG [Tryptophan A (C-G optomized)] | 0.342 µM | 0.181 µM | 0.284 µM | 0.281 µM | 0.268 µM
GCUAUGGUAGGAAGGAGCGCUUACUCGGUCAUAAGAGUGAUGUUCGAGACCGAGUAUUUAUAGCAGGUAGGUCGCCUACUAUAGC [Arginine B K4 6] | 0.068 µM | 0.124 µM | 0.00237 µM | 0.199 µM | 0.352 µM
UGAUCUGCAGUGAUGUUGCAGUAGCUGUCAGAGGAUAUCAGACUCAUGAGAAGGCUGACAAUGUCUAACAGCACAAUGCUGUUCA [FMN A SS t6] | 0.156 µM | 0.156 µM | 0.166 µM | 0.197 µM | 0.146 µM
AGCAGUCACUCGAAAACCAUCGAAGAUGGACGAGGACCGGUACGGCCGCCACUCGGAGUGAUGUUCCGAAGACUGCAAAAUAAAA [#SwitchBubble 16] | 0.38 µM | 0.402 µM | 0.433 µM | 0.346 µM | 0.435 µM
GCCUAGCAGGGAAGGAGCGCCAUAAGAAGUAAAGGAGGGAGUUGAGUGAUGUUCAAAAUGUGGCAGGUAGGUCGCCCUGCUAGGC [KL-SSArg B13] | 0.705 µM | 0.388 µM | 0.635 µM | 0.49 µM | 0.507 µM
GCAGUGAUGUUGCACGAGUAGGCUGGAGUACGAGGACCGGUACGGCCGCCACUCGUACGAUAGUCGCUAAUUUAUGGAAUGGUGA [#08 K4 Tryptophan A Same State] | 0.458 µM | 0.381 µM | 0.551 µM | 0.286 µM | 0.419 µM
UGCCGCAAGGCGAGCGCUCCCACUCCGGAAGGAGCGCCCGGAAGGGCAGGUAGGUCGCCGGAGUGAUGUUCCGGUGGAGGGCUCG [#2 Exclusion - Arginine A Attempt #26 (Inspired by Omei)] | 0.462 µM | 0.165 µM | 0.358 µM | 0.337 µM | 0.297 µM
AAGUGAUGUUGUAGUGAUGUUGUGAUGUUGCAGGAUAUAUAGUGAUGUAGAAGGGUAAGUACUGAUGUUGUUAGUGAGUGAUGUU [wwzrrmullin] | 0.111 µM | 0.0498 µM | 0.0879 µM | 0.0811 µM | 0.0866 µM
AAGGACUGCCAGGGAACACACUCAUUAUGGGAGGAUAUGUUAGCUGACAGAAGGCCCAGUGAUGUUGGGCCGGCGGGCUGUCAGG [Diargean] | 0.244 µM | 0.202 µM | 0.218 µM | 0.237 µM | 0.177 µM
GCGCGUCAUGUCAGCGGAGACACUGUCGAUACCAGCGCCGCAAGGCGCCCUUGGCAGCGACGCGCUGGAGUGAUGUUCCAGCGUG [#2 Exclusion - Theophylline A Attempt #15 (HarryS)] | 0.171 µM | 0.154 µM | 0.148 µM | 0.143 µM | 0.159 µM
AAAUCGUUCAGAAGGAGCGUGAAUUAUUCUUAAUUAUAUUAUACGAGUGAUGUUCGUGUUUCACAGGUAGGUCGCUGAUCGAUAA [JR_SSArginiB_Sub005] | 0.0944 µM | 0.126 µM | 0.0956 µM | 0.148 µM | 0.0841 µM
CCAUCGCUAUUCGAUACCAGUCAUUAAAUCUUUGGUUUAAUAAAGGAGUGAUGUUCCCAAGACCCUUGGCAGCGAAUAGUGAUGG [Theophylline B K4 9] | 0.213 µM | 0.183 µM | 0.198 µM | 0.166 µM | 0.207 µM
CGCAGUGAUGUUGCUAUUAUUCUUGAUUAACGAGGACCGGUACGGCCGCCACUCGAUUUCUAUCUAAUCCAGUGUUUUGUUGAGU [JR_ExcTryptoA_Sub002] | 0.324 µM | 0.422 µM | 0.346 µM | 0.455 µM | 0.24 µM
UUUAUAUUGUCGGCCGCCACUGGAUCAAUAUUUGUAUGAUCUAGUUCAAAGUGAUGUUUUGAGUCCAGGACCGGGACAUUUGUUA [JR_ExcTryptoB_Sub005] | 0.708 µM | 0.558 µM | 0.669 µM | 0.558 µM | 0.917 µM
CUUGGAAGGACGGCCGCCACUGGGCAGUGAUGUUGCCCGAGUUGGUAACGCAGUGAUGUUGCGUCCAGGACCGGGUCCUAGGAAU [Exclusion Tryptophan B GF 25] | 0.141 µM | 0.113 µM | 0.112 µM | 0.106 µM | 0.139 µM
AAGCAGUCACUCGAAAUCAUCAAAGAUGAACGAGGACCGGUACGGCCGCCACUCGGAGUGAUGUUCCGAAGACUGCAAAAUAAAA [MatMod 2 - Jieux - Exclusion - Tryptophan A] | 0.307 µM | 0.225 µM | 0.243 µM | 0.274 µM | 0.112 µM
GGUAGCAUGGCGGCCGCCACUAUUACUGGAUCGGAAACGAUCCAGUAUUUAUGAGUGAUGUUCAUUAGGACCGGGCCAUGCUACC | 0.342 µM | 0.301 µM | 0.304 µM | 0.305 µM | 0.208 µM
GGGUGUAGUGCGGCCGCCACUGUGAUAGUAGAAGAGUAUAGUGAUGUUAUAUAGGAUUAAUAGAAUAGGACCGGGCAUUAGACUU [#24 K4 Tryptophan B Same State] | 0.348 µM | 0.34 µM | 0.368 µM | 0.395 µM | 0.209 µM
GGUAUCUAUACAGAUACCAGUCGUACGGCUGCAUUACAGGUUAGUGAUGUUAACCUGUACGACCCUUGGCAGCUGUAUAGUAGUA [#14 K4 Theophylline B Exclusion] | 0.115 µM | 0.094 µM | 0.115 µM | 0.197 µM | 0.104 µM

Sequence | apparent KD of K4 kissing-loop reporter (input ligand: FMN 200 uM) | apparent KD of K4 kissing-loop reporter (input ligand: arginine 13.2 mM) | apparent KD of K4 kissing-loop reporter (input ligand: none) | apparent KD of K4 kissing-loop reporter [1] | apparent KD of K4 kissing-loop reporter [2]
AGGGACUCUUCGGAGUCCCGGUCAAGGGAUACCAGUGAUGUUGGUCACCCUUGGCAGCCCAGAAACCAAGCCACCAAAGGUGGCA [Omei KL Theo A Exc A v3] | 0.117 µM | 0.0979 µM | 0.0973 µM | 0.103 µM | 0.107 µM
AGAGAUAAGGCGGCCGCCACUAAGAUGAAACUAACGGUCAAGUGAUGUUUGCGGUUACAGUUCAGUAGGACCGGGCCGAGUAAAU [theeternabot_sameState_KL_Trp_B_47] | 0.512 µM | 0.403 µM | 0.407 µM | 0.412 µM | 0.357 µM
ACGUAGUUCUAGGAUACCAGCCAAGGUGCCAGGACAAAAGUCCUGGCAGCCAGUGAUGUUGGCCCUUGGCAGCCUAGAACUACGA [Omei KL Theo B Exc B v7] | 0.164 µM | 0.145 µM | 0.154 µM | 0.122 µM | 0.137 µM
UAUUCUGUUCGAAAGAACGGAAUUUCGGAAGGAGCGAGAGAAAUCUCAGGUAGGUCGCCGAAAUUAUUAGAUAGUGAUGUUAUCU [Arginine A K4 4] | 0.162 µM | 0.11 µM | 0.135 µM | 0.177 µM | 0.158 µM
GCUACCUAGGCAGGAUAUAGACAUUGAGUGAUGUUCGAUGAUUAUCCAUAUUCCCGUCACAUAUGACUAGAAGGGCCUAGGUAGC | 0.66 µM | 0.184 µM | 0.221 µM | 0.228 µM | 0.211 µM
AUGGGUUGUUGAAGGAGCGCCGCCAGUGAUGUUGGGAGUUAGAUACCAGUGAUGUUGGGCCGGCAGGUAGGUCGCGGCGAUUUAU [Exclusion Arginine B GF 19] | 0.347 µM | 0.17 µM | 0.484 µM | 0.332 µM | 0.344 µM
UGUCAUUGGUCGGCCGCCACUAGGACCGGGUAUAGCCUAGUGAUGUUAGUAAGUACGGCCGCCACUAGGACCGGGACCGAUGACU [KL-SSTryp-B21 #DoubleAptamer] | 0.742 µM | 0.057 µM | 0.591 µM | 0.674 µM | 0.131 µM
ACAUAGGAUGGAAGGAGCGCUCGUCAGUCCUGCGAGUGAUGUUCGUGGGUAAAUAUUCGCGAGCAGGUAGGUCGCCAUCUUGAAA [Vedi] | 0.109 µM | 0.115 µM | 0.158 µM | 0.177 µM | 0.164 µM
GUGGUACAGGCGGCCGCCACUAGUGAUGUUAGUGAUAGAAGAUAUAGUAAAUAUCGGCAUUUAGAUAGGACCGGGCCUGGUGGUG [xxfxcmullin] | 0.353 µM | 0.245 µM | 0.305 µM | 0.309 µM | 0.267 µM
UUUGGAAGCGGUGUUGAUUAGGGAGCGGAAGGAGCGCCGAGGAGGGCAGGUAGGUCGCCGGAAUGUAGUGAUGUUGCAUAGAGGU [ExArgA.Aa] | 0.29 µM | 0.265 µM | 0.214 µM | 0.526 µM | 0.178 µM
UCCUGCUGUCUGCCACGAAAGUGGAUUGAUACCAGAGUCGAAAGACUCCCUUGGCAGCGAGUGAUGUUCGAAGCAGGUAAAUAAA [MatMod 2 - Jieux - Exclusion - Theophylline A] | 0.21 µM | 0.215 µM | 0.234 µM | 0.22 µM | 0.188 µM
GGAUCUUCCAGUGAUGUUGGUUAAUAUAUCAAGGAUAUGACGAAAGUCAGAAGGUGAAAGACUGGACAAAGUCCAGUCGGAUCCA [KL-SSFMN-A19] | 0.444 µM | 0.573 µM | 0.599 µM | 0.444 µM | 0.43 µM
UCGCAAAAGUCGGCCGCCACUCCGGGCCCUAUAAAUGGGCGCAGUGAUGUUGCGGCUAGGCCUCUGAGGACCGGGACUUUGAAGA [Esesbior] | 0.101 µM | 0.025 µM | 0.0239 µM | 0.102 µM | 0.131 µM
GAGAUGCACCAGUCUUAACGUGACUUAUCCCGAGGACCGGUACGGCCGCCACUCGCGUACUACUAGUGAUGUUGGUCAGUAUGAG [theeternabot_sameState_KL_Trp_A_26] | 0.244 µM | 0.185 µM | 0.215 µM | 0.223 µM | 0.235 µM
CCGUGGAGUGAUGUUCCACGUUCUACGGAUACCAGCUUUGCCAAAGGCCCUUGGCAGCCGCACCUUGCAGUGAUGUUGUGAGGCU [Same State Theophylline A Gf7] | 0.329 µM | 0.268 µM | 0.305 µM | 0.302 µM | 0.274 µM
UUAAUAUUGUCGGCCGCCACUGGAUAGUAAUUUGUAUAAUCUAUUUCAAAGUGAUGUUUUGAGUCCAGGACCGGGACAUUUGAUA [JR_Nu_ExcTryptoB_Sub030] | 0.503 µM | 0.363 µM | 0.455 µM | 0.406 µM | 0.297 µM
UGAUACCAGACGGCCGCCACUACACCAGUCAAAGACUGGAUGUGAUGUCUGACCAGUGAUGUUGGUAGGACCGGGUCUGGUAUCU [TrypBX 6 #Palindromic #SwitchBubble #StaticStem] | 0.246 µM | 0.303 µM | 0.428 µM | 0.45 µM | 0.305 µM
UGACUGGACUGAAGGAGCGCUAAACUCCUAGUGAUGUUAGGGAAACGAGACAAAGUCUCGAGGCAGGUAGGUCGCAGUCUAGUCU [FiskerMod 1 - Jieux - Same State - Arginine B] | 0.254 µM | 0.199 µM | 0.261 µM | 0.265 µM | 0.244 µM
CUCCGACUAUCGGCCGCCACUAUCGGAAAGUCCACGGACAUUCAAUGCAGUUAGUGAUGUUAACGUAGGACCGGGAUGAUUUGUA [theeternabot_sameState_KL_Trp_B_9] | 0.543 µM | 0.35 µM | 0.659 µM | 0.541 µM | 0.491 µM
GUUACGCAUGGAAGGAGCGCAGGCUCAACAAAUAGCUCAGUGAUGUUGAGCAUAUUAAUUCUGCAGGUAGGUCGCCAUGUGUAAC [Ex Arginine B K4 25] | 0.531 µM | 0.491 µM | 0.551 µM | 0.536 µM | 0.508 µM
CACGAUGAAUUCUCUAGGAGUGAUGUUUUUCGAGGACCGGUACGGCCGCCACUCGGACGACGAGUGUGGUAGCGGGCUGAAGACU [zgullin] | 0.429 µM | 0.262 µM | 0.643 µM | 0.239 µM | 0.561 µM
